Where two headings read alike, the source gives them in different places.
Tests used:
Assay in all cases: cryo-EM structure
[1] = target: large tegument protein VP1/2 (ORF22) (Varicella-zoster virus (parental Oka strain, recombinant pOka-TK-RFP)) (UniProt P09278)
cryo-EM structure [2] = target: the molecule itself
cryo-EM structure [3] = target: the molecule itself; remark: listed apart in the source

large tegument protein VP1/2 (ORF22), P09278 1-2763
stoichiometry N [1]: 2

B1: capsid triplex protein 2 (TRX2; ORF41) (natural protein, UniProt P09291 1-316, looked up)
chain: MAMPFEIEVLLPGELSPAETSALQKCEGKIITFSTLRHRASLVDIALSSYYINGAPPDTLSLLEAYRMRFAAVITRVIPGKLLAHAIGVGTPTPGLFIQNTSPVDLCNGDYICLLPPVFGSADSIRLDSVGLEIVFPLTIPQTLMREIIAKVVARAVERTAAGAQILPHEVLRGADVICYNGRRYELETNLQHRDGSDAAIRTLVLNLMFSINEGCLLLLALIPTLLVQGAHDGYVNLLIQTANCVRETGQLINIPPMPRIQDGHRRFPIYETISSWISTSSRLGDTLGTRAILRVCVFDGPSTVHPGDRTAVIQV
stoichiometry N (cryo-EM structure [2]): 2

B2: capsid vertex-specific component 2 (CVC2; ORF34) (natural protein, UniProt P09287 1-579, looked up)
chain: MTARYGFGSISFPNKCGIFLSTTKNFIAPNFPIHYWTAPAFELRGRMNPDLEKNTLTLKNAAAVAALDNLRGETITLPTEIDRRLKPLEEQLTRMAKVLDSLETAAAEAEEADAQSEECTRTEIIRNESIHPEVQIAKNDAPLQYDTNFQVDFITLVYLGRARGNNSPGIVFGPWYRTLQERLVLDRPVAARGVDCKDGRISRTFMNTTVTCLQSAGRMYVGDRAYSAFECAVLCLYLMYRTSNSVHEPQVSSFGNLIEHLPEYTETFVNYMTTHENKNSYQFCYDRLPRDQFHARGGRYDQGALTSHSVMDALIRLQVLPPAPGQFNPGVNDIIDRNHTAYVDKIQQAAAAYLERAQNVFLMEDQTLLRLTIDTITALLLLRRLLWNGNVYGDKLKNNFQLGLIVSEATGTPTNNVILRGATGFDGKFKSGNNNFQFLCERYIAPLYTLNRTTELTEMFPGLVALCLDAHTQLSRGSLGRTVIDISSGQYQDRLISLIALELEHRRQNVTSLPIAAVVSIHDSVMLQYERGLGMLMHQPRVRAALEESRRLAQFNVNSDYDLLYFVCLGVIPQFASTP
stoichiometry N (cryo-EM structure [2]): 2

B3: VZV portal protein (pORF54) (natural protein, UniProt P09302 1-769, looked up)
chain: MAEITSLFNNSSGSEEKRIASSVSIDQGLNGSNPNDQYKNMFDIYWNEYAPDIGFCTFPEEDGWMLIHPTTQSMLFRKILAGDFGYTDGQGIYSAVRSTETVIRQVQATVLMNALDATRYEDLAADWEHHIQQCNLHAGALAERYGLCGESEAVRLAHQVFETWRQTLQSSLLEFLRGITGCLYTSGLNGRVGFAKYVDWIACVGIVPVVRKVRSEQNGTPAPLNTYMGQAAELSQMLKVADATLARGAAVVTSLVECMQNVAIMDYDRTRLYYNYNRRLIMAKDDVTGMKGECLVVWPPVVCGEGVVFDSPLQRLSGEVLACYALREHARVCQVLNTAPLRVLIGRRNEDDRSHSTRAVDRIMGENDTTRAGSAASRLVKLIVNLKNMRHVGDITETVRSYLEETGNHILEGSGSVDTSQPGFGKANQSFNGGAMSGTTNVQSAFKTSVVNSINGMLEGYVNNLFKTIEGLKDVNSDLTERLQFKEGELKRLREERVKIKPSKGSHITMAEETRIADLNHEVIDLTGIIGDDAYIANSFQSRYIPPYGDDIKRLSELWKQELVRCFKLHRVNNNQGQEISVSYSNASISLLVAPYFSFILRATRLGFLVTQSEVHRSEEELCQAIFKKARTESYLSQIRILYEMQVRAEVIKRGPRRTPSPSWGLPDPTEDDERIPEPNKINNQYMHVGYKNLSHFMKGHPPERLRVHKVNAADSTLLDKIRANRRRGDGRWDVRNKYTQHFRLQRNDRQLTNTSRRGVGCERRDRRS
stoichiometry N (cryo-EM structure [3]): 12

B4: major capsid protein (MCP; ORF40) (natural protein, UniProt P09245 1-1396, looked up)
chain: MTTVSCPANVITTTESDRIAGLFNIPAGIIPTGNVLSTIEVCAHRCIFDFFKQIRSDDNSLYSAQFDILLGTYCNTLNFVRFLELGLSVACICTKFPELAYVRDGVIQFEVQQPMIARDGPHPVDQPVHNYMVKRIHKRSLSAAFAIASEALSLLSNTYVDGTEIDSSLRIRAIQQMARNLRTVLDSFERGTADQLLGVLLEKAPPLSLLSPINKFQPEGHLNRVARAALLSDLKRRVCADMFFMTRHAREPRLISAYLSDMVSCTQPSVMVSRITHTNTRGRQVDGVLVTTATLKRQLLQGILQIDDTAADVPVTYGEMVLQGTNLVTALVMGKAVRGMDDVARHLLDITDPNTLNIPSIPPQSNSDSTTAGLPVNARVPADLVIVGDKLVFLEALERRVYQATRVAYPLIGNIDITFIMPMGVFQANSMDRYTRHAGDFSTVSEQDPRQFPPQGIFFYNKDGILTQLTLRDAMGTICHSSLLDVEATLVALRQQHLDRQCYFGVYVAEGTEDTLDVQMGRFMETWADMMPHHPHWVNEHLTILQFIAPSNPRLRFELNPAFDFFVAPGDVDLPGPQRPPEAMPTVNATLRIINGNIPVPLCPISFRDCRGTQLGLGRHTMTPATIKAVKDTFEDRAYPTIFYMLEAVIHGNERNFCALLRLLTQCIRGYWEQSHRVAFVNNFHMLMYITTYLGNGELPEVCINIYRDLLQHVRALRQTITDFTIQGEGHNGETSEALNNILTDDTFIAPILWDCDALIYRDEAARDRLPAIRVSGRNGYQALHFVDMAGHNFQRRDNVLIHGRPVRGDTGQGIPITPHHDREWGILSKIYYYIVIPAFSRGSCCTMGVRYDRLYPALQAVIVPEIPADEEAPTTPEDPRHPLHAHQLVPNSLNVYFHNAHLTVDGDALLTLQELMGDMAERTTAILVSSAPDAGAATATTRNMRIYDGALYHGLIMMAYQAYDETIATGTFFYPVPVNPLFACPEHLASLRGMTNARRVLAKMVPPIPPFLGANHHATIRQPVAYHVTHSKSDFNTLTYSLLGGYFKFTPISLTHQLRTGFHPGIAFTVVRQDRFATEQLLYAERASESYFVGQIQVHHHDAIGGVNFTLTQPRAHVDLGVGYTAVCATAALRCPLTDMGNTAQNLFFSRGGVPMLHDNVTESLRRITASGGRLNPTEPLPIFGGLRPATSAGIARGQASVCEFVAMPVSTDLQYFRTACNPRGRASGMLYMGDRDADIEAIMFDHTQSDVAYTDRATLNPWASQKHSYGDRLYNGTYNLTGASPIYSPCFKFFTPAEVNTNCNTLDRLLMEAKAVASQSSTDTEYQFKRPPGSTEMTQDPCGLFQEAYPPLCSSDAAMLRTAHAGETGADEVHLAQYLIRDASPLRGCLPLPR
stoichiometry N (cryo-EM structure [2]): 6

From article doi:10.1101/2025.06.27.661840 (bioRxiv, 2025)
